Test results as given in US20190002945A1.

Biological target: deglycosylated rituximab (Fucα1,6GlcNAc-rituximab)
Assay: cell-based or functional assay

Row | Substance | KM (µM), transglycosylation kinetics for the deglycosylated rituximab [µM] | KM relative to Endo-S2 D184M [fold]
1 | Endo-S2 D184A mutant (D184A mutant of wild type Endo-S2) (from UniProt T1WGN1 37-843) (enzyme) | > 680 | > 20
2 | Endo-S2 D184M mutant (D184M mutant of wild type Endo-S2) (from UniProt T1WGN1 37-843) (enzyme) | 32.6 | 
3 | Endo-S D233M mutant (Streptococcus pyogenes Endoglycosidase-S Asp-233-Met) (from UniProt Q99Y92 37-995) (enzyme) | 30.2 | 
4 | Endo-S D233A mutant (Streptococcus pyogenes Endoglycosidase-S Asp-233-Ala) (from UniProt Q99Y92 37-995) (enzyme) | > 200 | 
